Each block holds one binder with its values, some of them ahead of it.
B3: Alexa Fluor 488-labeled recombinant mouse GAC (FRET donor) (enzyme)
chain: SSSPSEILQELGKGGTPPQQQQQQQQQPGASPPAAPGPKDSPGETDAFGNSEGKEMVAAGDNKIKQGLLPSLEDLLFYTIAEGQEKIPVHKFITALKSTGLRTSDPRLKECMDMLRLTLQTTSDGVMLDKDLFKKCVQSNIVLLTQAFRRKFVIPDFMSFTSHIDELYESAKKQSGGKVADYIPQLAKFSPDLWGVSVCTVDGQRHSIGDTKVPFCLQSCVKPLKYAIAVNDLGTEYVHRYVGKEPSGLRFNKLFLNEDDKPHNPMVNAGAIVVTSLIKQGVNNAEKFDYVMQFLNKMAGNEYVGFSNATFQSERESGDRNFAIGYYLKEKKCFPEGTDMVGILDFYFQLCSIEVTCESASVMAATLANGGFCPITGERVLSPEAVRNTLSLMHSCGMYDFSGQFAFHVGLPAKSGVAGGILLVVPNVMGMMCWSPPLDKMGNSVKGIHFCHDLVSLCNFHNYDNLRHFAKKLDPRREGGDQRHSFGPLDYESLQQELALKDTVWKKVSPESSDDTSTTVVYRMESLGERS
modifications: labeled with Alexa Fluor 488 succinimidyl ester (sites not given)
notes: not shown: N-terminal His tag and thrombin cleavage site from pET28a
B5: QSY9-labeled recombinant mouse GAC (FRET acceptor) (enzyme)
chain: SSSPSEILQELGKGGTPPQQQQQQQQQPGASPPAAPGPKDSPGETDAFGNSEGKEMVAAGDNKIKQGLLPSLEDLLFYTIAEGQEKIPVHKFITALKSTGLRTSDPRLKECMDMLRLTLQTTSDGVMLDKDLFKKCVQSNIVLLTQAFRRKFVIPDFMSFTSHIDELYESAKKQSGGKVADYIPQLAKFSPDLWGVSVCTVDGQRHSIGDTKVPFCLQSCVKPLKYAIAVNDLGTEYVHRYVGKEPSGLRFNKLFLNEDDKPHNPMVNAGAIVVTSLIKQGVNNAEKFDYVMQFLNKMAGNEYVGFSNATFQSERESGDRNFAIGYYLKEKKCFPEGTDMVGILDFYFQLCSIEVTCESASVMAATLANGGFCPITGERVLSPEAVRNTLSLMHSCGMYDFSGQFAFHVGLPAKSGVAGGILLVVPNVMGMMCWSPPLDKMGNSVKGIHFCHDLVSLCNFHNYDNLRHFAKKLDPRREGGDQRHSFGPLDYESLQQELALKDTVWKKVSPESSDDTSTTVVYRMESLGERS
modifications: labeled with QSY9 succinimidyl ester (sites not given)
notes: also called QSY9-GAC; QSY9-labeled GAC; not shown: N-terminal His tag and thrombin cleavage site from pET28a

Columns and labels:
[1] = molecular target: B3; experiment: FRET exchange (competition): excess unlabeled GAC added to preformed 488-labeled GAC / QSY9-GAC complexes; displaced competitor is QSY9-GAC; with or without 100 mM phosphate or sulfate [panel A]
[2] = molecular target: B5; experiment: FRET, exchange with excess unlabeled GAC
[3] = molecular target: the molecule itself; experiment: SEC-MALS of 5 mg/ml protein, self-association (dimer/tetramer), without and after preincubation with BPTES; MW on a log axis [panel C]
Excerpt: (§1) LS=light scattering; MW=molecular weight. […] Points represent the mean and error bars the standard deviation of three independent experiments.

[4] = molecular target: the molecule itself; experiment: SEC-MALS of 5 mg/ml protein, self-association, without and after preincubation with BPTES; MW on a log axis [panel B]
Excerpt: LS=light scattering; MW=molecular weight.

[5] = molecular target: B5; experiment: FRET, self-association of labeled GAC in solution
[6] = molecular target: the molecule itself; experiment: SEC-MALS of 5 mg/ml protein, self-association (dimer/tetramer), without and after preincubation with BPTES; MW on a log axis [panel D]
Excerpt: as §1

[7] = molecular target: B3; experiment: FRET time trace: 25 nM 488-labeled GAC (donor) + 75 nM QSY9-GAC (acceptor); 100 mM phosphate, sulfate or water added at 10 min [panel A]

- binding result [1]: binds
- binding result [2]: binds
B1: wild-type recombinant mouse glutaminase C (GAC), residues 73-603, unlabeled (enzyme)
chain: SSSPSEILQELGKGGTPPQQQQQQQQQPGASPPAAPGPKDSPGETDAFGNSEGKEMVAAGDNKIKQGLLPSLEDLLFYTIAEGQEKIPVHKFITALKSTGLRTSDPRLKECMDMLRLTLQTTSDGVMLDKDLFKKCVQSNIVLLTQAFRRKFVIPDFMSFTSHIDELYESAKKQSGGKVADYIPQLAKFSPDLWGVSVCTVDGQRHSIGDTKVPFCLQSCVKPLKYAIAVNDLGTEYVHRYVGKEPSGLRFNKLFLNEDDKPHNPMVNAGAIVVTSLIKQGVNNAEKFDYVMQFLNKMAGNEYVGFSNATFQSERESGDRNFAIGYYLKEKKCFPEGTDMVGILDFYFQLCSIEVTCESASVMAATLANGGFCPITGERVLSPEAVRNTLSLMHSCGMYDFSGQFAFHVGLPAKSGVAGGILLVVPNVMGMMCWSPPLDKMGNSVKGIHFCHDLVSLCNFHNYDNLRHFAKKLDPRREGGDQRHSFGPLDYESLQQELALKDTVWKKVSPESSDDTSTTVVYRMESLGERS
notes: one subunit is described; also called WT GAC; unlabeled GAC; not shown: N-terminal His tag and thrombin cleavage site from pET28a
- binding result [3]: binds
- Specific activity of WT GAC without phosphate (mol Glu/min mol GAC), against [GAC]: specific activity (triangles, left axis) rises with [GAC] from about 90 at about 85 nM through about 400 at about 430 nM to about 500 at about 1000-1500 nM, flattening; no lower plateau inside the range (linear axis)

B2: mouse GAC F327W,D391K double mutant (residues 73-603) (enzyme)
chain: SSSPSEILQELGKGGTPPQQQQQQQQQPGASPPAAPGPKDSPGETDAFGNSEGKEMVAAGDNKIKQGLLPSLEDLLFYTIAEGQEKIPVHKFITALKSTGLRTSDPRLKECMDMLRLTLQTTSDGVMLDKDLFKKCVQSNIVLLTQAFRRKFVIPDFMSFTSHIDELYESAKKQSGGKVADYIPQLAKFSPDLWGVSVCTVDGQRHSIGDTKVPFCLQSCVKPLKYAIAVNDLGTEYVHRYVGKEPSGLRFNKLWLNEDDKPHNPMVNAGAIVVTSLIKQGVNNAEKFDYVMQFLNKMAGNEYVGFSNATFQSERESGKRNFAIGYYLKEKKCFPEGTDMVGILDFYFQLCSIEVTCESASVMAATLANGGFCPITGERVLSPEAVRNTLSLMHSCGMYDFSGQFAFHVGLPAKSGVAGGILLVVPNVMGMMCWSPPLDKMGNSVKGIHFCHDLVSLCNFHNYDNLRHFAKKLDPRREGGDQRHSFGPLDYESLQQELALKDTVWKKVSPESSDDTSTTVVYRMESLGERS
notes: Found as a dimer by SEC-MALS; also called GAC double mutant; dimeric GACF327W,D391K double mutant; not shown: N-terminal His tag and thrombin cleavage site from pET28a
- binding result [4]: binds

Binder: B3
- binding result [5]: binds

B4: mouse GAC F327W mutant (residues 73-603) (enzyme)
chain: SSSPSEILQELGKGGTPPQQQQQQQQQPGASPPAAPGPKDSPGETDAFGNSEGKEMVAAGDNKIKQGLLPSLEDLLFYTIAEGQEKIPVHKFITALKSTGLRTSDPRLKECMDMLRLTLQTTSDGVMLDKDLFKKCVQSNIVLLTQAFRRKFVIPDFMSFTSHIDELYESAKKQSGGKVADYIPQLAKFSPDLWGVSVCTVDGQRHSIGDTKVPFCLQSCVKPLKYAIAVNDLGTEYVHRYVGKEPSGLRFNKLWLNEDDKPHNPMVNAGAIVVTSLIKQGVNNAEKFDYVMQFLNKMAGNEYVGFSNATFQSERESGDRNFAIGYYLKEKKCFPEGTDMVGILDFYFQLCSIEVTCESASVMAATLANGGFCPITGERVLSPEAVRNTLSLMHSCGMYDFSGQFAFHVGLPAKSGVAGGILLVVPNVMGMMCWSPPLDKMGNSVKGIHFCHDLVSLCNFHNYDNLRHFAKKLDPRREGGDQRHSFGPLDYESLQQELALKDTVWKKVSPESSDDTSTTVVYRMESLGERS
notes: as for B3
- binding result [6]: binds

Binder: B5
- binding result [7]: binds

Source: patent publication US20180100178A1 (CORNELL UNIVERSITY, published 2018)
